“And” between values parts separate entries of the source, which are not always exact repeats. Identical values can stand only once.
Target: canine FcRn with a poly-His tag and canine B2M heterodimer complex (canine)
Assay: SPR (Biacore T200), biotinylated canine FcRn/B2M complex on chip, Fc as analyte, pH 6.0

Sequence of canine FcRn with a poly-His tag and canine B2M heterodimer complex (canine) (chain, as listed by the source limits assumed, chain 1 of 2): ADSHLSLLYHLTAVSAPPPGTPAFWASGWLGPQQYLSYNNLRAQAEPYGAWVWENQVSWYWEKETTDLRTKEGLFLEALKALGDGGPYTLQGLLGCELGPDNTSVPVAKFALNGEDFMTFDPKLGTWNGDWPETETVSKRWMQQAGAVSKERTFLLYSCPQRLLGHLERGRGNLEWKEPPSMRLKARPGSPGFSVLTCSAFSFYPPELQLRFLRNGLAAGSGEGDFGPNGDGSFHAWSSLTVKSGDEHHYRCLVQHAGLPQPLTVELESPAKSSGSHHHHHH
Sequence of canine FcRn with a poly-His tag and canine B2M heterodimer complex (canine) (b2m, as listed by the source limits assumed, chain 2 of 2): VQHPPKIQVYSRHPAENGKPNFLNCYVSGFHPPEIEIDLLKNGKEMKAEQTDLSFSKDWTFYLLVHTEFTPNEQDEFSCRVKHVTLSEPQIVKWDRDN

Row | Binder | koff
1 | variant canine IgG-B Fc polypeptide L(23)F (SASA tag) (protein, part only; not given: SASA tag, not shown: another chain or arm of the molecule; small tags and cut ends) Fc: PAPEMLGGPSVFIFPPKPKDTLFIARTPEVTCVVVDLDPEDPEVQISWFVDGKQMQTAKTQPREEQFNGTYRVVSVLPIGHQDWLKGKQFTCKVNNKALPSPIERTISKARGQAHQPSVYVLPPSREELSKNTVSLTCLIKDFFPPDIDVEWQSNGQQEPESKYRTTPPQLDEDGSYFLYSKLSVDKSRWQRGDTFICAVMHEALHNHYTQESLSHSPGK | 0.0631 s⁻¹ and 0.0847 s⁻¹
2 | variant canine IgG-B Fc polypeptide L(23)M (SASA tag) (protein, part only; not given: SASA tag, not shown: another chain or arm of the molecule; small tags and cut ends) Fc: PAPEMLGGPSVFIFPPKPKDTLMIARTPEVTCVVVDLDPEDPEVQISWFVDGKQMQTAKTQPREEQFNGTYRVVSVLPIGHQDWLKGKQFTCKVNNKALPSPIERTISKARGQAHQPSVYVLPPSREELSKNTVSLTCLIKDFFPPDIDVEWQSNGQQEPESKYRTTPPQLDEDGSYFLYSKLSVDKSRWQRGDTFICAVMHEALHNHYTQESLSHSPGK | 0.126 s⁻¹

Further lines, results first:

Row | koff | Binder
3 | 0.122 s⁻¹ | wild-type canine IgG-B Fc polypeptide (SASA tag) (protein, part only; not given: SASA tag, not shown: another chain or arm of the molecule; small tags and cut ends) Fc: PAPEMLGGPSVFIFPPKPKDTLLIARTPEVTCVVVDLDPEDPEVQISWFVDGKQMQTAKTQPREEQFNGTYRVVSVLPIGHQDWLKGKQFTCKVNNKALPSPIERTISKARGQAHQPSVYVLPPSREELSKNTVSLTCLIKDFFPPDIDVEWQSNGQQEPESKYRTTPPQLDEDGSYFLYSKLSVDKSRWQRGDTFICAVMHEALHNHYTQESLSHSPGK
4 | 0.241 s⁻¹ | variant canine IgG-B Fc polypeptide L(23)S (SASA tag) (protein, part only; not given: SASA tag, not shown: another chain or arm of the molecule; small tags and cut ends) Fc: PAPEMLGGPSVFIFPPKPKDTLSIARTPEVTCVVVDLDPEDPEVQISWFVDGKQMQTAKTQPREEQFNGTYRVVSVLPIGHQDWLKGKQFTCKVNNKALPSPIERTISKARGQAHQPSVYVLPPSREELSKNTVSLTCLIKDFFPPDIDVEWQSNGQQEPESKYRTTPPQLDEDGSYFLYSKLSVDKSRWQRGDTFICAVMHEALHNHYTQESLSHSPGK
5 | 0.0138 s⁻¹ | variant canine IgG-B Fc polypeptide L(23)Y (SASA tag) (protein, part only; not given: SASA tag, not shown: another chain or arm of the molecule; small tags and cut ends) Fc: PAPEMLGGPSVFIFPPKPKDTLYIARTPEVTCVVVDLDPEDPEVQISWFVDGKQMQTAKTQPREEQFNGTYRVVSVLPIGHQDWLKGKQFTCKVNNKALPSPIERTISKARGQAHQPSVYVLPPSREELSKNTVSLTCLIKDFFPPDIDVEWQSNGQQEPESKYRTTPPQLDEDGSYFLYSKLSVDKSRWQRGDTFICAVMHEALHNHYTQESLSHSPGK
